Assay results: article PMC6101483, “Investigating mycobacterial topoisomerase I mechanism from the analysis of metal and DNA substrate interactions at the active site”

Target: T1, MtbTOP1-704t (Mycobacterium tuberculosis, UniProt P9WG49 2-704)
T1 sequence: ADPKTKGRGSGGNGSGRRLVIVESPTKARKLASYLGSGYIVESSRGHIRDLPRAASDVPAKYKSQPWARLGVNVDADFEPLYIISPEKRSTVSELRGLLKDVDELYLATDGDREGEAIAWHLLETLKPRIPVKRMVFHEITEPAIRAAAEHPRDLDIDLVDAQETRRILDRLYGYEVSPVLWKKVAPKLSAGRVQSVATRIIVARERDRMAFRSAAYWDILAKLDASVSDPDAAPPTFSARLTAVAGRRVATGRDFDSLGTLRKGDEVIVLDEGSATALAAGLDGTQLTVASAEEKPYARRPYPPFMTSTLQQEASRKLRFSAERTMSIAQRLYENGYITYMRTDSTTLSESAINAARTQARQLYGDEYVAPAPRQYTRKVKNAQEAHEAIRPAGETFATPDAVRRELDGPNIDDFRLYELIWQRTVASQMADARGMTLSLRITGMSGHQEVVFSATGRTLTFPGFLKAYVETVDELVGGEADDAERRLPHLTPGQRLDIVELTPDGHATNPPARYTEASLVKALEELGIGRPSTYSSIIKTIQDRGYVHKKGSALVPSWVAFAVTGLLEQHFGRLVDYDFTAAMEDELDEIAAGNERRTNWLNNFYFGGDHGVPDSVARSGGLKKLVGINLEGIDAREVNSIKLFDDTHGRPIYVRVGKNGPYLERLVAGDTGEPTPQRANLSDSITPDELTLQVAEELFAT
Assay: X-ray crystallography; no metal at active site; 2.42 A
Settings: protein: recombinant; tags: His6-Mocr removed by TEV; N-terminal SNA remains; single strand

TTCCGCTTGAC (ssDNA) [MTS2-11]
binding result: binds
